Results from paper PMC7666158.
Positions count from the first letter of the chain named. Names and notes keep the numbering of the source.

B1: MBP-ATF2(19-100)-WT (domain or fragment)
chain: MSDDKPFLCTAPGCGQRFTNEDHLAVHKHKHEMTLKFGPARNDSVIVADQTPTPTRFLKNCEEVGLFNELASPFENEFKKAS
B2: MBP-ATF2-(19-100)-V44A (domain or fragment)
chain: B1 chain with V26A
B3: MBP-ATF2(19–100) K48E (domain or fragment)
chain: B1 chain with K30E
B4: MBP-ATF2-(19-100)-H47R (domain or fragment)
chain: B1 chain with H29R
B5: MBP-ATF2-(19-100)-H47E (domain or fragment)
chain: B1 chain with H29E
B6: MBP-ATF2-(19-100)-Q34R/H47R (domain or fragment)
chain: B1 chain with Q16R, H29R
B7: MBP-ATF2-(19-100)-Q34R (domain or fragment)
chain: B1 chain with Q16R
B8: MBP-ATF2-(19-100)-V44E (domain or fragment)
chain: B1 chain with V26E

Key:
[1] = molecular target: JNK1-dc20 (JNK1 with the C-terminal 20 residues truncated) (human) (UniProt P45983); experiment: ITC; as a5, with 2 mM EDTA
[2] = molecular target: JNK1-dc20 (JNK1 with the C-terminal 20 residues truncated) (human) (UniProt P45983); experiment: fluorescence polarisation; competitive: 50 nM CF-evJIP with JNK1 at ~60–80% complex, titrated with unlabeled competitor; 20 mM Tris pH 8.0, 100 mM NaCl, 0.05% Brij35P, 2 mM TCEP; 384-well plates
[3] = molecular target: pp-JNK1 (activated, phosphorylated JNK1) (human) (UniProt P45983); experiment: in vitro kinase assay fitted with a kinetic model; 5 nM pp-JNK or pp-p38, MBP-ATF2(19-100) substrate 0.5-100 uM, 5 mM ATP, kinase buffer; p-T71 and p-T69/T71 by quantitative dot-blots; binding rates (kon, koff) and reaction rates fitted simultaneously with the BioNetGen model (PyBioNetFit)
[4] = molecular target: JNK1-dc20 (JNK1 where the C-terminal 20 residues are truncated) (human) (UniProt P45983); experiment: fluorescence polarisation; competitive titration: JNK1 with CF-evJIP (50 nM; JNK1 at ~60-80% complex formation) titrated with unlabeled MBP-ATF2(19-100) constructs; data fit to a competition binding equation; 20 mM Tris pH 8.0, 100 mM NaCl, 0.05% Brij35P, 2 mM TCEP

Binder	Kd [4] [µM]	other results
MSDDKPFLCTAPGCGQRFTNEDHLAVHKHKHEMTLKFGPA (domain or fragment) [ATF2(19–58)-His6 (MBP removed, for ITC)]		fold decrease in binding with EDTA against no EDTA [1]: 10 fold
MSDDKPFLCTAPGCGQRFTNEDHLAVHKHKHEMTLKFGPA (domain or fragment) [ATF2(19–58) as used in the competitive fluorescence polarisation assay]		Kd [2]: 5 µM
B1	3.5	Kd [3]: 3.5 µM; koff [3]: 19.6 s⁻¹; kon [3]: 5.6e+06 M⁻¹ s⁻¹
B2	15.5	
B3		fold decrease in binding against the wild type [2]: 10 fold
B4	0.26	
B5	39.3	
B6	0.05	
B7	0.87	
B8	56.2	
